Article doi:10.1101/2025.05.28.656718
pIC50: −log10 of the molar value.

Target: His-tagged PKM1 (human) (UniProt P14618)
Test: AlphaScreen or HTRF

Sequence of Pep-SP1 (Q6SZW1 whole entry, looked up): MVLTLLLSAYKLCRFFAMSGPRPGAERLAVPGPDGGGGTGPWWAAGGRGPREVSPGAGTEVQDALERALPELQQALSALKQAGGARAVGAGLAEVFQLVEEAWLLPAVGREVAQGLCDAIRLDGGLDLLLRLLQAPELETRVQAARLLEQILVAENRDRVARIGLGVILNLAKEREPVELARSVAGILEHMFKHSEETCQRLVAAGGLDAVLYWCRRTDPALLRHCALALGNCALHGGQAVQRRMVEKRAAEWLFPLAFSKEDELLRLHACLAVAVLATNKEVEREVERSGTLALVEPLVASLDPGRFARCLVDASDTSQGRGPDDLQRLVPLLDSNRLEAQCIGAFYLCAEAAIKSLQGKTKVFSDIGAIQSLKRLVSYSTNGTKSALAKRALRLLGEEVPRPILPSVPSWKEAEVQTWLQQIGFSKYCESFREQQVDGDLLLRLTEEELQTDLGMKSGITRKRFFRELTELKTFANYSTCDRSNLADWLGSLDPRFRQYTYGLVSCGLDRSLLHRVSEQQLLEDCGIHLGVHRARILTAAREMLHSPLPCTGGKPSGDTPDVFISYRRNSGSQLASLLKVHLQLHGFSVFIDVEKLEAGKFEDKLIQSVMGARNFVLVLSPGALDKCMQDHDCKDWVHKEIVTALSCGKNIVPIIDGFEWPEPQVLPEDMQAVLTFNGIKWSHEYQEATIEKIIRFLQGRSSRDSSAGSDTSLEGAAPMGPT

## Pep-SP1 (from UniProt Q6SZW1 645-655) (peptide)
  pIC50: 5.97
